According to patent EP1327681A1:
One block for each molecule: values may come before it.

Assays:
[1] = target: human TPO receptor (MPL) expressed on Ba/F3 cells (human) (UniProt P40238); test: cell-based or functional assay
[2] = target: human TPO receptor (MPL) expressed on Ba/F3 cells (human) (UniProt P40238); test: cell-based or functional assay; remark: listed apart in the source

ED50, proliferation of BaF/mpl cells (WST-8) [1]: 0.027 nM
Molecule: human TPO (R&D Systems) (from UniProt P40225 22-353) (ligand)

ED50, TPO-like agonist activity, proliferation of BaF/mpl cells (WST-8) [2]: 29 nM
B1: antibody 12B5 (IgG) (antibody, from another filing)
scFv: QVQLVQSGGGLVRPGGSLSLSCAVSGITLRTYGMHWVRQAPGKGLEWVAGISFDGRSEYYADSVQGRFTISRDSSKNTLYLQMNSLRAEDTAVYYCARGAHYGFDIWGQGTMVTVSSGGGGTGGGGSGGGGSDIQMTQSPSTLSASIGDRVTITCRASEGIYHWLAWYQQKPGKAPKLLIYKASSLASGAPSRFSGSGSGTDFTLTISSLQPDDFATYYCQQYSNYPLTFGGGTKLEIK
